Assay results published in US20220306733A1 (ITEOS BELGUIM, published 2022).
Blank lines part the entries; values can stand above or below the binder they belong to.

Experiments:
[1] = molecular target: T1, anti-idiotypic antibody clone 32869; assay: MSD electrochemiluminescence bridging ELISA: anti-idiotypic antibody 32869 coated on the plate, clone 31282 spiked in human serum, detection with Sulfo-TAG 32869
T1 construct: Human IgG1 from HEK293, selected from the HuCAL library
Text: The ELISA assay is based on the Meso Scale Discovery (MSD) Platform using electrochemiluminescence detection technology. […] A voltage is applied to the plate electrodes, causing the bound Sulfo-TAG to emit light via electrochemical stimulation.

[2] = molecular target: T2, human TIGIT on cells (Jurkat-hTIGIT, human primary T cells) (human, UniProt Q495A1 22-244); assay: flow cytometry on Jurkat-hTIGIT, 100 nM antibody, vs untransfected Jurkat
T2 construct: whole, on cells; The cell type is named in each row's assay; also called membrane expressed human TIGIT
T2 sequence (looked up): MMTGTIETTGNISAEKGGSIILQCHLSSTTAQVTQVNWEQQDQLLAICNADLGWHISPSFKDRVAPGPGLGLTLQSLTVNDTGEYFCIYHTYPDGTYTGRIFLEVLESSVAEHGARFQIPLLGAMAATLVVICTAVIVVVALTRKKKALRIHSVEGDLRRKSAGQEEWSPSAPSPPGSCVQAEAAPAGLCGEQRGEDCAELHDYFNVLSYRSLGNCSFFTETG
Method: (§1) Antibodies were incubated with the cells for 20 min at 4° C. in FACS buffer. […] Geometric mean fluorecence intensity was analysed using LSR BD Fortessa. Cell binding was recorded as the median florescence intensity of PE on the transfected line compared to the un-transfected line for each antibody (Table 3).

[3] = molecular target: T2, human TIGIT on cells (Jurkat-hTIGIT, …); assay: cell-based or functional assay
[4] = molecular target: T3, mouse TIGIT on cells (Jurkat-mTIGIT) (mouse, UniProt P86176 29-249); assay: cell-based or functional assay
T3 sequence (looked up): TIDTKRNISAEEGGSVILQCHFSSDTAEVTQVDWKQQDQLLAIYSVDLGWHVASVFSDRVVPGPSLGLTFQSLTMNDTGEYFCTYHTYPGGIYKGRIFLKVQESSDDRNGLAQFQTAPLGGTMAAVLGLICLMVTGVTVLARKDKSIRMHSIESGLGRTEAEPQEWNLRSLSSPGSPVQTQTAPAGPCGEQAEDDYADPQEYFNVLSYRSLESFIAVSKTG

[5] = molecular target: T3, mouse TIGIT on cells (Jurkat-mTIGIT); assay: flow cytometry on Jurkat-mTIGIT, 100 nM antibody, vs untransfected Jurkat
Method: as §1

[6] = molecular target: T2, human TIGIT on cells (Jurkat-hTIGIT, …); assay: flow cytometry on Jurkat-hTIGIT, no 31282

T1 sequence (VH, as listed by the source, chain 1 of 2): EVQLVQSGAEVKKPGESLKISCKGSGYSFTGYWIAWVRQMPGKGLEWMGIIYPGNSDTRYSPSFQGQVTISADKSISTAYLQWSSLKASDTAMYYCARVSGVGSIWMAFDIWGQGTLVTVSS
T1 sequence (VL, as listed by the source, chain 2 of 2): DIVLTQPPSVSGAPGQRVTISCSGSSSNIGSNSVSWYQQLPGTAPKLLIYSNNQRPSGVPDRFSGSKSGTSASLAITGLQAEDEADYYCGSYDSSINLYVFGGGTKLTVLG

binding result [1]: binds
B1: anti-TIGIT antibody clone 31282 (antibody, V domains shown)
VH: QVQLVQSGAEVKKPGASVKVSCKASGYTFTSYYMHWVRQAPGQGLEWMGVIGPSGASTSYAQKFQGRVTLTRDTSTSTVYMELSSLRSEDTAVYYCARDHSDYWSGIMEVWGQGTTVTVSS
VL: EIVLTQSPGTLSLSPGERATLSCRASQSVRSSYLAWYQQKPGQAPRLLIYGASSRATGIPDRFSGSGSGTDFTLTISRLEPEDFAVYYCQQYFSPPWTFGGGTKVEIK

Cell binding FON (Fold Over Negative) [2]: 80 fold over negative | luciferase induction over isotype control (fold change), Jurkat-hTIGIT + CHO-TCR-CD155 bioassay, 133 nM antibody [3]: 0.96 fold | IFNg production by mouse OT-1 CD8+ T cells co-cultured with OVA-pulsed PanO2 cells, 133 nM antibody [4]: ~2 fold | Cell binding FON (Fold Over Negative) [5]: 463 fold over negative
B2: anti-TIGIT antibody clone 26493 (antibody, V domains shown)
VH: EVQLVESGGGLVQPGRSLRLSCAASGFTFGDYAMHWVRQAPGKGLEWVSGITWNSGSIGYADSVKGRFTISRDNAKNSLYLQMNSLRAEDTALYYCAKPVPKSRGLDVWGQGTMVTVSS
VL: DIQLTQSPSSVSASVGDRVTITCRASQGISSWLAWYQQKPGKAPKLLIYGASSLQSGVPSRFSGSGSGTDFTLTISSLQPEDFATYYCQQAFYLPWTFGGGTKVEIK
notes: Naive parent clone, VH3-09; human IgG; Fab for 'Fab KD' columns; mouse IgG2a/IgG1 versions only used in vivo / ex vivo; also called surrogate anti-TIGIT antagonistic antibody

Cell binding Jurkat Human TIGIT FON (Fold Over Negative) [6]: 588 fold over negative
B3: anti-TIGIT antibody clone 32959 (antibody, human IgG1, V domains shown)
VH: QVQLVQSGAEVKKPGSSVKVSCKASGGTFSSYLISWVRQAPGQGLEWMGGIYPIFATANYAQKFQGRVTITADESTSTAYMELSSLRSEDTAVYYCAREAQSYRVPFDIWGQGTMVTVSS
VL: EIVMTQSPATLSVSPGERATLSCRASQSVSSNLAWYQQKPGQAPRLLIYGASTRATGIPARFSGSGSGTEFTLTISSLQSEDFAVYYCQQYAIWPPFTFGGGTKVEIK
modifications: AF647 dye coupled to the antibody in Examples 24 and 36; the site is not stated and the letters do not carry it.
notes: human IgG1 from HEK cells
